From publication PMC11178898, “A clade of receptor-like cytoplasmic kinases and 14-3-3 proteins coordinate inositol hexaphosphate accumulation” (Nature Communications, 2024)

B1: GRF4, Split-LUC fusion [Arabidopsis thaliana] / PI-PLC2, Split-LUC fusion [Arabidopsis thaliana] (parent)
chain 1: MAAPPASSSAREEFVYLAKLAEQAERYEEMVEFMEKVAEAVDKDELTVEERNLLSVAYKNVIGARRASWRIISSIEQKEESRGNDDHVTTIRDYRSKIESELSKICDGILKLLDTRLVPASANGDSKVFYLKMKGDYHRYLAEFKTGQERKDAAEHTLTAYKAAQDIANAELAPTHPIRLGLALNFSVFYYEILNSPDRACNLAKQAFDEAIAELDTLGEESYKDSTLIMQLLRDNLTLWTSDMQDESPEEIKEAAAPKPAEEQKEI
chain 2: MSKQTYKVCFCFRRRFRYTASEAPREIKTIFEKYSENGVMTVDHLHRFLIDVQKQDKATREDAQSIINSASSLLHRNGLHLDAFFKYLFGDNNPPLALHKVHHDMDAPISHYFIFTGHNSYLTGNQLSSDCSEVPIIDALKKGVRVIELDIWPNSNKDDIDVLHGMTLTTPVGLIKCLKAIRAHAFDVSDYPVVVTLEDHLTPDLQSKVAEMVTEIFGEILFTPPVGESLKEFPSPNSLKRRIIISTKPPKEYKEGKDVEVVQKGKDLGDEEVWGREVPSFIQRNKSEAKDDLDGNDDDDDDDDEDKSKINAPPQYKHLIAIHAGKPKGGITECLKVDPDKVRRLSLSEEQLEKAAEKYAKQIVRFTQHNLLRIYPKGTRVTSSNYNPLVGWSHGAQMVAFNMQGYGRSLWLMQGMFRANGGCGYIKKPDLLLKSGSDSDIFDPKATLPVKTTLRVTVYMGEGWYFDFRHTHFDQYSPPDFYTRVGIAGVPGDTVMKKTKTLEDNWIPAWDEVFEFPLTVPELALLRLEVHEYDMSEKDDFGGQTCLPVWELSEGIRAFPLHSRKGEKYKSVKLLVKVEFV

Variants of: B1
Test: Split-LUC
Conditions: with PI-PLC2, Split-LUC fusion [Arabidopsis thaliana]; P4: nluc-GRF4 S242D, cluc-PI-PLC2, 35S::IPCK1-flag co-infiltrated (1:1:2); Total cps 150882, Areas 56.84; parent value is P1, which the printed layout grid …; parent: 1.67e+03

response (cps (average))	Variant
2650	chain 1 S242D

Same assay, conditions: with PI-PLC2, Split-LUC fusion [Arabidopsis thaliana]; P3: nluc-GRF4 S242A, cluc-PI-PLC2, 35S::IPCK1-flag co-infiltrated (1:1:2); Total cps 91336, Areas 49.23; parent value is P1, which the printed layout grid …; parent: 1.67e+03

response (cps (average))	Variant
1860	chain 1 S242A
